According to paper PMC9870165:

Legend:
[1] = target: ZIKV E protein on wild-type Zika virus H/PF/2013 in culture supernatant (Zika virus (strain H/PF/2013)); assay: ELISA; ZIKV capture ELISA: virus in culture supernatant captured by plate-bound mAb 4G2; serially diluted Fabs added 1 h at 37°C; anti-human Fab alkaline phosphatase; EC50 from titration
[2] = target: recombinant ZIKV E protein (ectodomain of Zika virus envelope glycoprotein E) (Zika virus); assay: crystal structure; recombinant ZIKV E and G9E Fab mixed 1:1.2 at room temperature for 30 min, complex purified on Superdex 200-increase; crystals in 100 mM HEPES pH 7.5, 10% (w/v) PEG 8000; 3.4 Å

With “G9E-S1/2 Fab (paratope mutant D53A, D54A, D57S, Q58A, K76S)” as the substance, how does the fold weaker binding than G9E-S2 [1] read?
Its fold weaker binding than G9E-S2 is 30 fold.

Which fold reduction in binding compared to WT G9E [1] does the source give for “G9E-S2 Fab (paratope mutant D57S, Q58A, K76S)” here?
Its fold reduction in binding compared to WT G9E is 10 fold.

“recombinant ZIKV E protein (ectodomain of Zika virus envelope glycoprotein E) (domain or fragment)” was tested. Which stoichiometry N [2] did it give?
The stoichiometry N was 2.
